Tests used:
Saccharomyces cerevisiae [1] = experiment: protein stability index of tFT-peptide fusion in deletion strain of DOA10 (PSI (0-1 scale)); higher = more stable (slower turnover)
Protocol: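 MPS profiling in S. cerevisiae of two library types built from selected 12-aa C-degron peptides (IN1, IN2, LN1, LN3, VN2, R1-R5, W1-W3, Atg1 and Rpa12 C-termini): saturation mutagenesis libraries and C-terminal +1 capping libraries (13 aa). Each peptide is fused to the C-terminus of a sfGFP-mCherry timer, after a GGGS linker. Cells are FACS-sorted into 8 mCherry/sfGFP bins and sequenced. PSI runs from 0 (unstable) to 1 (stable), measured once in wild type and in the das1Δ or doa10Δ background.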

Saccharomyces cerevisiae [2] = experiment: protein stability index of tFT-peptide fusion in wild type (PSI (0-1 scale)); higher = more stable (slower turnover); conditions: genetic background: wild type
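Wherever protein stability index of tFT-peptide fusion in deletion strain of DOA10 is given: PSI per variant is the weighted mean of its sequencing read distribution over the sorted stability bins, counting only variants with over 10 reads summed across bins.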
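Wherever protein stability index of tFT-peptide fusion in wild type is given: PSI derived as read-weighted mean over the 8 sorting bins, only variants exceeding 10 total reads kept, mCherry placed adjacent to the peptide and sfGFP distal.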

CLVSLPILLVFR
protein stability index (Saccharomyces cerevisiae [1]): 0.527 | protein stability index (Saccharomyces cerevisiae [2]): 0.0722

AITLPMCPLLLH
protein stability index (Saccharomyces cerevisiae [1]): 0.621 | protein stability index (Saccharomyces cerevisiae [2]): 0.502

AITLPMCPLLER
protein stability index (Saccharomyces cerevisiae [1]): 0.741 | protein stability index (Saccharomyces cerevisiae [2]): 0.648

CPVSLPILLFFR
protein stability index (Saccharomyces cerevisiae [1]): 0.602 | protein stability index (Saccharomyces cerevisiae [2]): 0.0943

GLYMCSVGCSFR
protein stability index (Saccharomyces cerevisiae [1]): 0.651 | protein stability index (Saccharomyces cerevisiae [2]): 0.621

CLVSFPILLFFR
protein stability index (Saccharomyces cerevisiae [1]): 0.583 | protein stability index (Saccharomyces cerevisiae [2]): 0.0594

RSLRVLLPLYFRQ
protein stability index (Saccharomyces cerevisiae [1]): 0.606 | protein stability index (Saccharomyces cerevisiae [2]): 0.205

FSLRVLLPLYFR
protein stability index (Saccharomyces cerevisiae [1]): 0.608 | protein stability index (Saccharomyces cerevisiae [2]): 0.268

RSLRVLWPLYFR
protein stability index (Saccharomyces cerevisiae [1]): 0.676 | protein stability index (Saccharomyces cerevisiae [2]): 0.181

RSLRVLLPLEFR
protein stability index (Saccharomyces cerevisiae [1]): 0.679 | protein stability index (Saccharomyces cerevisiae [2]): 0.601

SITLPMCPLLLR
protein stability index (Saccharomyces cerevisiae [1]): 0.65 | protein stability index (Saccharomyces cerevisiae [2]): 0.248

RVTRLDAIYFCI
protein stability index (Saccharomyces cerevisiae [1]): 0.435 | protein stability index (Saccharomyces cerevisiae [2]): 0.378

CLVSLPILLFCR
protein stability index (Saccharomyces cerevisiae [1]): 0.25 | protein stability index (Saccharomyces cerevisiae [2]): 0.0631

GLIMCSVGCWFR
protein stability index (Saccharomyces cerevisiae [1]): 0.39 | protein stability index (Saccharomyces cerevisiae [2]): 0.197

AITLPMCVLLLR
protein stability index (Saccharomyces cerevisiae [1]): 0.608 | protein stability index (Saccharomyces cerevisiae [2]): 0.0936

QLVSLPILLFFR
protein stability index (Saccharomyces cerevisiae [1]): 0.647 | protein stability index (Saccharomyces cerevisiae [2]): 0.0846

RQLRVLLPLYFR
protein stability index (Saccharomyces cerevisiae [1]): 0.665 | protein stability index (Saccharomyces cerevisiae [2]): 0.216

CEVSLPILLFFR
protein stability index (Saccharomyces cerevisiae [1]): 0.635 | protein stability index (Saccharomyces cerevisiae [2]): 0.066
